Changes are numbered by the printed parent chain. Each block holds one binder with its values, some of them ahead of it.
Columns and labels:
DDX39B (residues 44-428) = DDX39B (residues 44-428) (human, UniProt Q13838 44-428); assay: crystal structure
SARNP (residues 1-210) = target: T1, SARNP (residues 1-210) (human, UniProt P82979 1-210); assay: MST
T1 sequence (looked up): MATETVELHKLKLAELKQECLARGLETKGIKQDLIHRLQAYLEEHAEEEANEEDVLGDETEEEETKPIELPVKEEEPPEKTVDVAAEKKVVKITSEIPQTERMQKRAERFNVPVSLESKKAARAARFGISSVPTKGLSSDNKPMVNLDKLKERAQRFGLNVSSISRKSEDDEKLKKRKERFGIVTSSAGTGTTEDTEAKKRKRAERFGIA

[1] = target: T2, SARNP-mut2 (R153A/F157A/R177A/F181A/R203A/F207A) (human, UniProt P82979 1-210, R153A | F157A | R177A | F181A | R203A | F207A); assay: MST
T2 sequence (looked up): T1 sequence (looked up) with R153A, F157A, R177A, F181A, R203A, F207A

- binding result (DDX39B (residues 44-428)): binds
B1: Tho1 (residues 123-178) (domain or fragment, S. cerevisiae, UniProt P40040 123-178, looked up)
chain: EEIKAKALDLLNKKLHRANKFGQDQADIDSLQRQINRVEKFGVDLNSKLAEELGLV

- EC50 (SARNP (residues 1-210)): 1.3 µM
- EC50 [1]: 3 µM
B2: DDX39B-CTD (residues 259-428) (domain or fragment, human, UniProt Q13838 259-428, looked up)
chain: LHGLQQYYVKLKDNEKNRKLFDLLDVLEFNQVVIFVKSVQRCIALAQLLVEQNFPAIAIHRGMPQEERLSRYQQFKDFQRRILVATNLFGRGMDIERVNIAFNYDMPEDSDTYLHRVARAGRFGTKGLAITFVSDENDAKILNDVQDRFEVNISELPDEIDISSYIEQTR
